PMC11329700

Biological target: His-tagged mouse Endophilin A1 SH3 domain (mouse) (UniProt Q62420)
Experiment: ELISA; His-tagged mouse Endophilin A1 SH3 domain coated onto a 96-well plate, overlaid with increasing concentrations of GST-tagged Dyn1-PRR peptides; two experiments with four replicates each

Sequence of His-tagged mouse Endophilin A1 SH3 domain (mouse) (Q62420 290-349): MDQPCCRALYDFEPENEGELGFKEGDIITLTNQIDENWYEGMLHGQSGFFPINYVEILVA

| fold weaker affinity than xA 746-864 [fold] | fold lower affinity than xA 746-864 [fold] | Substance |
| --- | --- | --- |
| 9 |  | GST-Dyn1xA-PRR 751-798 (domain or fragment) |
|  | 3 | GST-Dyn1xB-PRR (dynamin 1xB proline-rich region, amino acids 746-851) (domain or fragment) |
